Measured values reported in patent publication US20220144945A1 (Biogen, published 2022).

T1: LINGO-1 ectodomain (human, UniProt Q96FE5 42-561)
T1 construct: also called Sp35
T1 sequence: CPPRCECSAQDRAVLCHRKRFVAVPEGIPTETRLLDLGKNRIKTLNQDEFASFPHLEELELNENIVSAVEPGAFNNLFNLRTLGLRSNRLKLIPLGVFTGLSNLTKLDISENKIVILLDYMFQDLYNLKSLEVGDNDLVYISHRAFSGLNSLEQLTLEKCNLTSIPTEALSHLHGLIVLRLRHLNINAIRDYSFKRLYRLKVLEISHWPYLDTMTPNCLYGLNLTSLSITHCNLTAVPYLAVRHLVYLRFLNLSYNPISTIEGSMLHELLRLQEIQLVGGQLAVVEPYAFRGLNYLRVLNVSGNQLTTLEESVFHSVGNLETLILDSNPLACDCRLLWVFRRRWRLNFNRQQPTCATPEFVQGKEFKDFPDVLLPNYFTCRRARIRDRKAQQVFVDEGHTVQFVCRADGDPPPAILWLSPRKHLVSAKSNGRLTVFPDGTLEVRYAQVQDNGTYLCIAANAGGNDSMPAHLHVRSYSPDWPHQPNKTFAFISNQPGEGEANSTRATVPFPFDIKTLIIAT

B1: Li81 (antibody, human IgG1, kappa, V domains shown)
VH: EVQLLESGGGLVQPGGSLRLSCAASGFTFSAYEMKWVRQAPGKGLEWVSVIGPSGGFTFYADSVKGRFTISRDNSKNTLYLQMNSLRAEDTAVYYCATEGDNDAFDIWGQGTTVTVSS
VL: DIQMTQSPATLSLSPGERATLSCRASQSVSSYLAWYQQKPGQAPRLLIYDASNRATGIPARFSGSGSGTDFTLTISSLEPEDFAVYYCQQRSNWPMYTFGQGTKLEIKR
notes: also called anti-LINGO-1 antibody; anti-Lingo-1
B2: Fab of Li81 (Fab, V domains shown)
VH: EVQLLESGGGLVQPGGSLRLSCAASGFTFSAYEMKWVRQAPGKGLEWVSVIGPSGGFTFYADSVKGRFTISRDNSKNTLYLQMNSLRAEDTAVYYCATEGDNDAFDIWGQGTTVTVSS
VL: DIQMTQSPATLSLSPGERATLSCRASQSVSSYLAWYQQKPGQAPRLLIYDASNRATGIPARFSGSGSGTDFTLTISSLEPEDFAVYYCQQRSNWPMYTFGQGTKLEIK
notes: also called Li81 Fab

Target: T1, LINGO-1 ectodomain
Experiment: method not stated

Binder	Kd
B1	≤ 0.02 nM
B2	≤ 0.05 nM
